Laboratory results published in the Immune Epitope Database (IEDB).

Tests used:
HLA-B*15:01 = test: IEDB peptide-MHC binding, purified MHC/competitive/fluorescence; filed as Kd, often an IC50 or EC50 that approximates it; ≥ and ≤ were set here for values at or beyond the usual limits of such assays
HLA-B*18:01 = test: as above
HLA-B*57:01 = test: as above
HLA-A*02:01 = test: as above
HLA-A*69:01 = test: as above
HLA-B*46:01 = test: as above
HLA-B*39:01 = test: as above
HLA-B*15:17 = test: as above
HLA-A*26:01 = test: as above
HLA-B*51:01 = test: as above
HLA-A*23:01 = test: IEDB peptide-MHC binding, purified MHC/direct/fluorescence; filed as Kd, often an IC50 or EC50 that approximates it; ≥ and ≤ were set here for values at or beyond the usual limits of such assays
HLA-A*02:03 = test: as above
HLA-A*02:16 [1] = test: as above; conditions: source organism: Zaire ebolavirus
HLA-B*27:05 = test: as above; conditions: source organism: Ebola virus - Gabon (1994-1997)
HLA-A*24:03 = test: as above
HLA-A*02:19 [2] = test: as above
HLA-A*02:11 = test: as above
HLA-A*68:02 = test: as above
HLA-A*29:02 = test: as above
HLA-A*02:12 = test: as above
HLA-B*27:03 = test: IEDB peptide-MHC binding, purified MHC/competitive/fluorescence; filed as Kd, often an IC50 or EC50 that approximates it; ≥ and ≤ were set here for values at or beyond the usual limits of such assays
HLA-A*01:01 = test: IEDB peptide-MHC binding, purified MHC/direct/fluorescence; filed as Kd, often an IC50 or EC50 that approximates it; ≥ and ≤ were set here for values at or beyond the usual limits of such assays; conditions: source organism: Reston ebolavirus - Reston
HLA-A*03:01 [3] = test: as above
HLA-B*15:02 = test: IEDB peptide-MHC binding, purified MHC/competitive/fluorescence; filed as Kd, often an IC50 or EC50 that approximates it; ≥ and ≤ were set here for values at or beyond the usual limits of such assays
HLA-B*15:42 = test: as above; conditions: source organism: Entamoeba histolytica
HLA-A*31:01 = test: as above; conditions: source organism: Entamoeba histolytica
HLA-A*32:07 = test: as above; conditions: source organism: Entamoeba histolytica
HLA-B*45:06 = test: as above; conditions: source organism: Entamoeba histolytica
HLA-B*83:01 = test: as above; conditions: source organism: Entamoeba histolytica
HLA-A*11:01 = test: IEDB peptide-MHC binding, purified MHC/direct/fluorescence; filed as Kd, often an IC50 or EC50 that approximates it; ≥ and ≤ were set here for values at or beyond the usual limits of such assays; conditions: source organism: Entamoeba histolytica
HLA-A*03:01 [4] = test: IEDB peptide-MHC binding, purified MHC/competitive/fluorescence; filed as Kd, often an IC50 or EC50 that approximates it; ≥ and ≤ were set here for values at or beyond the usual limits of such assays; conditions: source organism: Zaire ebolavirus
HLA-A*02:16 [5] = test: as above; conditions: source organism: Human immunodeficiency virus type 1 (Z-84 ISOLATE)
HLA-A*02:19 [6] = test: as above; conditions: source organism: Human immunodeficiency virus type 1 (Z-84 ISOLATE)
HLA-C*15:02 = test: IEDB peptide-MHC binding, purified MHC/direct/fluorescence; filed as Kd, often an IC50 or EC50 that approximates it; ≥ and ≤ were set here for values at or beyond the usual limits of such assays; conditions: source organism: Human immunodeficiency virus type 1 (Z-84 ISOLATE)
[7] = source organism: Zaire ebolavirus
[8] = source organism: Reston ebolavirus
[9] = source organism: Vibrio vulnificus CMCP6
[10] = source organism: Human immunodeficiency virus type 1 (Z-84 ISOLATE)

GRYNLISPK showed a Kd (HLA-B*15:01; [7]) of at least 20 µM, a Kd (HLA-B*18:01; [7]) of at least 20 µM and a Kd (HLA-B*57:01; [7]) of at least 20 µM. For the same sequence, the Kd (HLA-A*02:01; [7]) was at least 20 µM, the Kd (HLA-A*69:01; [7]) was at least 20 µM and the Kd (HLA-B*46:01; [7]) was at least 20 µM. The Kd (HLA-B*39:01; [7]) was at least 20 µM, the Kd (HLA-B*15:17; [7]) was at least 20 µM and the Kd (HLA-A*26:01; [7]) was at least 20 µM. For the same sequence, the Kd (HLA-B*51:01; [7]) was at least 20 µM, the Kd (HLA-A*23:01; [7]) was at least 20 µM and the Kd (HLA-A*02:03; [7]) was at least 20 µM. For the same sequence, the Kd (HLA-A*02:16 [1]) was at least 20 µM, the Kd (HLA-B*27:05) was 74.6 nM and the Kd (HLA-A*24:03; [7]) was at least 20 µM. The Kd (HLA-A*02:19 [2]; [7]) was at least 20 µM, the Kd (HLA-A*02:11; [7]) was at least 20 µM and the Kd (HLA-A*68:02; [7]) was at least 20 µM. For the same sequence, the Kd (HLA-A*29:02; [7]) was at least 20 µM and the Kd (HLA-A*02:12; [7]) was at least 20 µM.

With ITDEINQIK the Kd (HLA-B*15:01; [8]) was at least 20 µM, the Kd (HLA-B*18:01; [8]) was at least 20 µM and the Kd (HLA-B*57:01; [8]) was at least 20 µM. The Kd (HLA-A*02:01; [8]) was at least 20 µM, the Kd (HLA-B*27:03; [8]) was at least 20 µM and the Kd (HLA-A*69:01; [8]) was at least 20 µM. For the same sequence, the Kd (HLA-B*46:01; [8]) was at least 20 µM, the Kd (HLA-B*39:01; [8]) was at least 20 µM and the Kd (HLA-B*15:17; [8]) was at least 20 µM. It also gave a Kd (HLA-A*26:01; [8]) of at least 20 µM, a Kd (HLA-B*51:01; [8]) of at least 20 µM and a Kd (HLA-A*23:01; [8]) of at least 20 µM. It also gave a Kd (HLA-A*01:01) of at least 20 µM, a Kd (HLA-A*02:03; [8]) of at least 20 µM and a Kd (HLA-A*03:01 [3]; [8]) of at least 20000 nM. The Kd (HLA-A*24:03; [8]) was at least 20 µM, the Kd (HLA-A*02:19 [2]; [8]) was at least 20 µM and the Kd (HLA-A*02:11; [8]) was at least 20 µM. It also gave a Kd (HLA-A*68:02; [8]) of at least 20 µM, a Kd (HLA-A*29:02; [8]) of at least 20 µM and a Kd (HLA-A*02:12; [8]) of at least 20 µM.

In the case of NMQESSKSF, the Kd (HLA-B*15:02; source organism: Orientia tsutsugamushi str. Ikeda) is reported as 64.3 nM.

With NTFAAWLPM the Kd (HLA-B*15:02; source organism: Giardia lamblia ATCC 50803) was 193 nM.

For PYWQGIWDK, the Kd (HLA-A*23:01; [9]) was 0.006 µM and the Kd (HLA-A*24:03; [9]) was 0.013 µM.

RMYWGVNPK was tested, and the Kd (HLA-B*15:42) was at least 5 µM, the Kd (HLA-A*31:01) was at most 1 nM and the Kd (HLA-A*32:07) was 13.9 nM. The Kd (HLA-B*45:06) was at least 5 µM, the Kd (HLA-B*83:01) was at least 5 µM and the Kd (HLA-A*03:01 [3]; source organism: Entamoeba histolytica) was 1.4 nM. The Kd (HLA-A*11:01) was 1.6 nM.

SLLHESTLK gave a Kd (HLA-B*15:01; [7]) of at least 20 µM, a Kd (HLA-B*18:01; [7]) of at least 20 µM and a Kd (HLA-B*57:01; [7]) of at least 20 µM. It also gave a Kd (HLA-A*03:01 [4]) of 24.1 nM, a Kd (HLA-A*02:01; [7]) of at least 20 µM and a Kd (HLA-B*27:03; [7]) of at least 20 µM. The Kd (HLA-A*69:01; [7]) was at least 20 µM, the Kd (HLA-B*46:01; [7]) was at least 20 µM and the Kd (HLA-B*39:01; [7]) was at least 20 µM. The Kd (HLA-B*15:17; [7]) was at least 20 µM, the Kd (HLA-A*26:01; [7]) was at least 20 µM and the Kd (HLA-B*51:01; [7]) was at least 20 µM. It also gave a Kd (HLA-A*23:01; [7]) of at least 20 µM, a Kd (HLA-A*02:03; [7]) of at least 20 µM and a Kd (HLA-A*02:16 [1]) of at least 20 µM. It also gave a Kd (HLA-A*24:03; [7]) of at least 20 µM, a Kd (HLA-A*02:19 [2]; [7]) of at least 20 µM and a Kd (HLA-A*02:11; [7]) of at least 20 µM. It also gave a Kd (HLA-A*68:02; [7]) of at least 20 µM, a Kd (HLA-A*29:02; [7]) of at least 20 µM and a Kd (HLA-A*02:12; [7]) of at least 20 µM.

Sequence WLRAMPPRM has a Kd (HLA-B*15:02; source organism: Vibrio vulnificus YJ016) of at least 20000 nM.

Work on YIKIFIMIV yielded a Kd (HLA-A*02:16 [5]) of at least 20 µM, a Kd (HLA-A*02:01; [10]) of at least 20 µM and a Kd (HLA-A*69:01; [10]) of at least 20 µM. The Kd (HLA-A*02:19 [6]) was at least 20 µM and the Kd (HLA-C*15:02) was at least 20 µM.
